{"source": "IntAct's records for PubMed 24855949", "key": {"[1]": {"target": "cdn2a_human CDKN2A (UniProt P42771)"}, "[2]": {"target": "T1, iaspp_human PPP1R13L (UniProt Q8WUF5)", "T1 sequence": "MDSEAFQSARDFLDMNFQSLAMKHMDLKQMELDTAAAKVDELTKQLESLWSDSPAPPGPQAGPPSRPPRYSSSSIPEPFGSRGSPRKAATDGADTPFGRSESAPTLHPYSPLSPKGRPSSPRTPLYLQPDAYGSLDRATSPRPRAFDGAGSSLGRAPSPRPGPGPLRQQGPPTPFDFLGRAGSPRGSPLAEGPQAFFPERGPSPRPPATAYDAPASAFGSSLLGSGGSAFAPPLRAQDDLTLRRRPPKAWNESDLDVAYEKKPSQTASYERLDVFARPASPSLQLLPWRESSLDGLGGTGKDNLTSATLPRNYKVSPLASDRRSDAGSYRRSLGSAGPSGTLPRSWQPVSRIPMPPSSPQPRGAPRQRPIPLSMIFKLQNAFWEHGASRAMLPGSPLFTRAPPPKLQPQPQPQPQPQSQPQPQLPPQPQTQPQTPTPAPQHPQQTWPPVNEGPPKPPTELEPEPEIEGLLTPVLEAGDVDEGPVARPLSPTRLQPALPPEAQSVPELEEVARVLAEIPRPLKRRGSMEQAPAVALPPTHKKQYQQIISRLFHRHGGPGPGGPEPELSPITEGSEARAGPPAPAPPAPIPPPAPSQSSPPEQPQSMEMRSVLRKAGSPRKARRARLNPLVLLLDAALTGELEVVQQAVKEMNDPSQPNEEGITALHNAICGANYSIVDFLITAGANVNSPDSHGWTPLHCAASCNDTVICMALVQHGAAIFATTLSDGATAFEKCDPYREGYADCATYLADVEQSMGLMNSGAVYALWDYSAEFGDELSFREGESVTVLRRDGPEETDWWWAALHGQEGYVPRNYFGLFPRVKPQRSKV"}, "[3]": {"target": "ikba_chick NFKBIA (UniProt Q91974)", "sequence (Q91974 whole entry)": "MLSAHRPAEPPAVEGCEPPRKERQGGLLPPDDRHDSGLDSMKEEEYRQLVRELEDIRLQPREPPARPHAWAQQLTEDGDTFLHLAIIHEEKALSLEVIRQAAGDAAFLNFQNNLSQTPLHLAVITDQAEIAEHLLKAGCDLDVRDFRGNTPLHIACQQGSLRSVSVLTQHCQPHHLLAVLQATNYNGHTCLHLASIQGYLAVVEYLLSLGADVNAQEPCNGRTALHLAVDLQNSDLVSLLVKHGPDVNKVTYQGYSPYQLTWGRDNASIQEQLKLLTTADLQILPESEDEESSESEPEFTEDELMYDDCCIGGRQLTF"}, "[4]": {"target": "T1, iaspp_human PPP1R13L", "remark": "listed apart in the source"}}, "data": [{"substance": "GTP-binding nuclear protein Ran (Homo sapiens) (from UniProt P62826) Q69L", "values": [{"measurement": "effect of a mutation on the interaction", "setting": "[1]", "value": "disrupting interaction strength"}, {"measurement": "effect of a mutation on the interaction", "setting": "[2]", "value": "disrupting interaction strength"}]}, {"substance": "GTP-binding nuclear protein Ran (Homo sapiens) (from UniProt P62826) V187R;V188R", "values": [{"measurement": "effect of a mutation on the interaction", "setting": "[3]", "value": "decreasing interaction strength"}, {"measurement": "effect of a mutation on the interaction", "setting": "[4]", "value": "decreasing interaction strength"}]}, {"substance": "GTP-binding nuclear protein Ran (Homo sapiens) (from UniProt P62826) V188R", "values": [{"measurement": "effect of a mutation on the interaction", "setting": "[3]", "value": "decreasing interaction strength"}]}]}
